T1: Strep-tagged STOML3-AmCyan1 (stomatin-like protein-3, wild type) (mouse, UniProt Q6PE84 1-287)
T1 construct: Stomatin-like protein-3 (STOML3), mouse; Made from the STOML3-EGFP plasmid 'described previously' by cloning into pAmCyan1-N1 with a Strep tag; also called STOML3-Strep; STOML3-CFP; source: CHO cells, transiently transfected; in lysate (co-IP) and in live cells (FRET)
T1 sequence (looked up): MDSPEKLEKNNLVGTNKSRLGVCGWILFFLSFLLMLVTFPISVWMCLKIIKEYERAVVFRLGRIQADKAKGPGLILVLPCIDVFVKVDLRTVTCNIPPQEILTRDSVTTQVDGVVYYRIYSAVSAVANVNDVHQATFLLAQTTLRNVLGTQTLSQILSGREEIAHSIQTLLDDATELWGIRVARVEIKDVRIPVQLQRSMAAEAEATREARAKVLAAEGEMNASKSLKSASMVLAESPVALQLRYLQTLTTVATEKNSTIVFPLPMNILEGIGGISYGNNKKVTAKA

B1: EYFP-tagged ASIC1a (natural protein, mouse, UniProt Q6NXK8-1 1-526, looked up)
chain: MELKTEEEEVGGVQPVSIQAFASSSTLHGLAHIFSYERLSLKRALWALCFLGSLAVLLCVCTERVQYYFCYHHVTKLDEVAASQLTFPAVTLCNLNEFRFSQVSKNDLYHAGELLALLNNRYEIPDTQMADEKQLEILQDKANFRSFKPKPFNMREFYDRAGHDIRDMLLSCHFRGEACSAEDFKVVFTRYGKCYTFNSGQDGRPRLKTMKGGTGNGLEIMLDIQQDEYLPVWGETDETSFEAGIKVQIHSQDEPPFIDQLGFGVAPGFQTFVSCQEQRLIYLPSPWGTCNAVTMDSDFFDSYSITACRIDCETRYLVENCNCRMVHMPGDAPYCTPEQYKECADPALDFLVEKDQEYCVCEMPCNLTRYGKELSMVKIPSKASAKYLAKKFNKSEQYIGENILVLDIFFEVLNYETIEQKKAYEIAGLLGDIGGQMGLFIGASILTVLELFDYAYEVIKHRLCRRGKCQKEAKRNSADKGVALSLDDVKRHNPCESLRGHPAGMTYAANILPHHPARGTFEDFTC
notes: source: CHO cells, transiently transfected, in live cells
B2: EYFP-tagged ASIC1b (natural protein, mouse, UniProt Q6NXK8-2 1-559, looked up)
chain: MPIQIFCSVSFSSGEEAPGSMGDIWGPHHHHRQQQDSSESEEEEEKEKESGMELDEGDSPRDLVAFANSCTLHGASHVFVEGGPGPRQALWAVAFVIALGAFLCQVGDRVAYYLSYPHVTLLDEVATTELVFPAVTFCNTNAVRLSQLSYPDLLYLAPMLGLDESDDPGVPLAPPGPEAFSGEPFNLHRFYNRSCHRLEDMLLYCSYCGGPCGPHNFSVVFTRYGKCYTFNSGQDGRPRLKTMKGGTGNGLEIMLDIQQDEYLPVWGETDETSFEAGIKVQIHSQDEPPFIDQLGFGVAPGFQTFVSCQEQRLIYLPSPWGTCNAVTMDSDFFDSYSITACRIDCETRYLVENCNCRMVHMPGDAPYCTPEQYKECADPALDFLVEKDQEYCVCEMPCNLTRYGKELSMVKIPSKASAKYLAKKFNKSEQYIGENILVLDIFFEVLNYETIEQKKAYEIAGLLGDIGGQMGLFIGASILTVLELFDYAYEVIKHRLCRRGKCQKEAKRNSADKGVALSLDDVKRHNPCESLRGHPAGMTYAANILPHHPARGTFEDFTC
notes: as for B1
B3: EYFP-tagged ASIC2a (natural protein, rat, UniProt Q62962-1 1-512, looked up)
chain: MDLKESPSEGSLQPSSIQIFANTSTLHGIRHIFVYGPLTIRRVLWAVAFVGSLGLLLVESSERVSYYFSYQHVTKVDEVVAQSLVFPAVTLCNLNGFRFSRLTTNDLYHAGELLALLDVNLQIPDPHLADPTVLEALRQKANFKHYKPKQFSMLEFLHRVGHDLKDMMLYCKFKGQECGHQDFTTVFTKYGKCYMFNSGEDGKPLLTTVKGGTGNGLEIMLDIQQDEYLPIWGETEETTFEAGVKVQIHSQSEPPFIQELGFGVAPGFQTFVATQEQRLTYLPPPWGECRSSEMGLDFFPVYSITACRIDCETRYIVENCNCRMVHMPGDAPFCTPEQHKECAEPALGLLAEKDSNYCLCRTPCNLTRYNKELSMVKIPSKTSAKYLEKKFNKSEKYISENILVLDIFFEALNYETIEQKKAYEVAALLGDIGGQMGLFIGASLLTILELFDYIYELIKEKLLDLLGKEEEEGSHDENMSTCDTMPNHSETISHTVNVPLQTALGTLEEIAC
notes: also called ASIC2a-YFP; source: CHO cells, transiently transfected, in live cells
B4: EYFP-tagged ASIC2b (natural protein, rat, UniProt Q62962-2 1-563, looked up)
chain: MSRSGGARLPATALSGPGRFRMAREQPAPVAVAAARQPGGDRSGDPALQGPGVARRGRPSLSRTKLHGLRHMCAGRTAAGGSFQRRALWVLAFCTSLGLLLSWSSNRLLYWLSFPSHTRVHREWSRQLPFPAVTVCNNNPLRFPRLSKGDLYYAGHWLGLLLPNRTARPLVSELLRGDEPRRQWFRKLADFRLFLPPRHFEGISAAFMDRLGHQLEDMLLSCKYRGELCGPHNFSSVFTKYGKCYMFNSGEDGKPLLTTVKGGTGNGLEIMLDIQQDEYLPIWGETEETTFEAGVKVQIHSQSEPPFIQELGFGVAPGFQTFVATQEQRLTYLPPPWGECRSSEMGLDFFPVYSITACRIDCETRYIVENCNCRMVHMPGDAPFCTPEQHKECAEPALGLLAEKDSNYCLCRTPCNLTRYNKELSMVKIPSKTSAKYLEKKFNKSEKYISENILVLDIFFEALNYETIEQKKAYEVAALLGDIGGQMGLFIGASLLTILELFDYIYELIKEKLLDLLGKEEEEGSHDENMSTCDTMPNHSETISHTVNVPLQTALGTLEEIAC
notes: as for B1
B5: EYFP-tagged ASIC3 (natural protein, rat, UniProt O35240 1-533, looked up)
chain: MKPRSGLEEAQRRQASDIRVFASSCTMHGLGHIFGPGGLTLRRGLWATAVLLSLAAFLYQVAERVRYYGEFHHKTTLDERESHQLTFPAVTLCNINPLRRSRLTPNDLHWAGTALLGLDPAEHAAYLRALGQPPAPPGFMPSPTFDMAQLYARAGHSLEDMLLDCRYRGQPCGPENFTVIFTRMGQCYTFNSGAHGAELLTTPKGGAGNGLEIMLDVQQEEYLPIWKDMEETPFEVGIRVQIHSQDEPPAIDQLGFGAAPGHQTFVSCQQQQLSFLPPPWGDCNTASLDPDDFDPEPSDPLGSPRPRPSPPYSLIGCRLACESRYVARKCGCRMMHMPGNSPVCSPQQYKDCASPALDAMLRKDTCVCPNPCATTRYAKELSMVRIPSRASARYLARKYNRSESYITENVLVLDIFFEALNYEAVEQKAAYEVSELLGDIGGQMGLFIGASLLTILEILDYLCEVFQDRVLGYFWNRRSAQKRSGNTLLQEELNGHRTHVPHLSLGPRPPTTPCAVTKTLSASHRTCYLVTRL
notes: as for B1
B6: EYFP-tagged ASIC4 (natural protein, mouse, UniProt Q7TNS7 1-539, looked up)
chain: MPIEIVCKIKFAEEDAKPKEKEAGDEQSLLGAAQGPAAPRDLATFASTSTLHGLGRACGPGPHGLRRTLWALALLTSLAAFLYQAASLARGYLTRPHLVAMDPAAPAPVAGFPAVTLCNINRFRHSALSDADIFHLANLTGLPPKDRDGHRAAGLRYPEPDMVDILNRTGHQLADMLKSCNFSGHHCSASNFSVVYTRYGKCYTFNADPQSSLPSRAGGMGSGLEIMLDIQQEEYLPIWRETNETSFEAGIRVQIHSQEEPPYIHQLGFGVSPGFQTFVSCQEQRLTYLPQPWGNCRAESELREPELQGYSAYSVSACRLRCEKEAVLQRCHCRMVHMPGNETICPPNIYIECADHTLDSLGGGSEGPCFCPTPCNLTRYGKEISMVKIPNRGSARYLARKYNRNETYIRENFLVLDVFFEALTSEAMEQQAAYGLSALLGDLGGQMGLFIGASILTLLEILDYIYEVSWDRLKRVWRRPKTPLRTSTGGISTLGLQELKEQSPCPSRGRAEGGGASSLLPNHHHPHGPPGSLFEDFAC
notes: as for B1

target: T1, Strep-tagged STOML3-AmCyan1 …; experiment: FRET or BRET; three-cube FRET imaging of CHO cells co-expressing the AmCyan1 (CFP) and EYFP fusions; apparent FRET efficiency, calibrated with two fluorophore-tandem constructs; conditions: partners not purified

Binder | apparent FRET efficiency (mean, cell-averaged) [%]
B1 | 14.4 ± 0.51
B2 | 13.9 ± 0.73
B3 | 13.4 ± 0.52
B4 | 13.1 ± 0.49
B5 | 15.5 ± 0.67
B6 | 15.4 ± 0.65

Reference: PMC3390797, “Regulation of ASIC channels by a stomatin/STOML3 complex located in a mobile vesicle pool in sensory neurons” (Open Biology, 2012)
